Measurements as given in US20200283482A1, “BICYCLIC PEPTIDE LIGAND PRR-A CONJUGATES AND USES THEREOF” (BicycleRD Limited, priority 2017, published 2020).
Starred links: 1 amine or outer side, 2 acyl side, 3 side chain; linkers in the order of their positions; H or OH if unused. Positions of bridges follow the written chain, without caps; N, C: chain ends. Non-standard residues stand in square brackets, D forms with d. Residues, ends and D or L forms follow the SMILES beside them. *: point of attachment. X12 = CCOCc1nc2c(NC(=O)OCCN(C)C(=O)OCc3ccc(NC(=O)[C@H](CCCNC(N)=O)NC(=O)[C@@H](NC(=O)Cn4cc(CCC(=O)*)nn4)C(C)C)cc3)nc3ccccc3c2n1CC(C)(C)O; X6 = CCN(Cc1nc2c(N)nc3ccccc3c2n1CC(C)(C)O)C(=O)OCc1ccc(NC(=O)[C@H](CCCNC(N)=O)NC(=O)[C@@H](NC(=O)Cn2cc(CCC(=O)*)nn2)C(C)C)cc1; X4 = CCN(Cc1nc2c(N)nc3ccccc3c2n1CC(C)(C)O)C(=O)OCc1ccc(NC(=O)[C@H](CCCNC(N)=O)NC(=O)C2(C(=O)*)CCC2)cc1; 1Nal = N[C@@H](Cc1cccc2ccccc12)C(=O)O; TBMB = c1c(C[*:1])cc(C[*:3])cc1C[*:2]; X5 = O=C(CCc1cn(CCCN[*:1])nn1)[*:2]; Tle = CC(C)(C)[C@H](N)C(=O)O; βAla = NCCC(=O)O; Sar = CNCC(=O)O

How the values were obtained:
Plasma stability, human = format: in vitro ADME; conditions: human, plasma, pH 7.4
Protocol: (§1) The pooled frozen mouse, rat, dog, monkey or human plasma is thawed in a water bath at 37° C. prior to experiment. Plasma is centrifuged at 4000 rpm for 5 min and the clots are removed if any. […] For positive controls, 100 μM intermediate solution is prepared by diluting 20 μL of the stock solution with 180 μL 45% MeOH/H2O. […] For compounds I-7 to […]-17, […]-22, and […]-33, at each time point (0, 1, 2, 4, 6 and 24 hr), reactions were stopped by removing the plates from water bath and 200 μL 20 mM NH4OAC mix well first and then adding 800 μL of ice-cold stop solution (200 ng/mL Labetalol, 200 ng/mL Tolbutamide, 500 ng/mL N6-Ben and 40 mM DBAA in 100% Methanol). […] Sample plates were vortexed immediately on a plate shaker at 800 rpm for 10 min and then centrifuged at 4,000 rpm for 10 min. An aliquot of supernatant (200 μL) is transferred from each well before submitting to LC-MS/MS analysis. The percentage of test compound remaining at the individual time points relative to the 0 hour sample is calculated using following equation: Percent Remaining=100×(PAR at appointed incubation time/PAR at T0 time) where PAR is the peak area ratio of analyte versus internal standard (IS).

Plasma stability, cyno = format: in vitro ADME; conditions: cynomolgus monkey, plasma, pH 7.4
Protocol: as §1

Plasma stability, rat = format: in vitro ADME; conditions: rat, plasma, pH 7.4
Protocol: as §1

Plasma stability, mouse = format: in vitro ADME; conditions: mouse, plasma, pH 7.4
Protocol: as §1

Blood stability, mouse = format: in vitro ADME, CD-1 mouse; conditions: male, CD-1, mouse
Protocol: CD-1 mouse blood (n≥2, male, fasted overnight) is collected from animals housed at an internal facility. (EDTA-K2 is used as anticoagulant)
The test compounds and positive control stock solutions are prepared to 10 mM in DMSO or ultrapure water. Control compounds bisacodyl, enalapril and propantheline known to be metabolised by blood are also incubated alongside each batch of test compounds I-7, I-22, I-24, I-25, I-27, and I-29 to I-33. The dosing solutions of test compounds and controls are prepared by diluting the stock solution with 45% MeOH/H2O to achieve 100 uM. Test compound solutions (final incubation concentration=2 μM) are incubated with blood (final DMSO concentration≤1%) at six different time points (0, 1, 2, 4, 6 and 24 hours) in duplicate (n=2). The reaction is terminated by adding 100 uL ultra-pure water, mixing well, then adding 800 uL of 100% methanol containing 200 ng/mL tolbutamide and 200 ng/mL labetalol as internal standards. Samples are then vortexed and centrifuged at 3200×g for 20 minutes. Following centrifugation, the concentration of test compound in the supernatant is determined semi-quantitatively by LC-MS/MS. The percentage of test compound remaining at the individual time points relative to the 0 hour sample is then reported. The percent remaining of test compound after incubation in blood is calculated using following equation: Percent Remaining=100×(PAR at appointed incubation time/PAR at T0 time) where PAR is the peak area ratio of analyte versus internal standard (IS).

| Structure (SMILES) | half-life at 2 μM (Plasma stability, human) | half-life at 2 μM (Plasma stability, cyno) | half-life at 2 μM (Plasma stability, rat) | half-life at 2 μM (Plasma stability, mouse) | half-life at 2 μM (Blood stability, mouse) |
| --- | --- | --- | --- | --- | --- |
| CCN(Cc1nc2c(N)nc3ccccc3c2n1CC(C)(C)O)C(=O)OCc1ccc(NC(=O)[C@H](CCCNC(N)=O)NC(=O)C2(C(=O)NCCCn3cc(CCC(=O)NCCC(=O)N(C)CC(=O)N(C)CC(=O)N(C)CC(=O)N(C)CC(=O)N(C)CC(=O)N(C)CC(=O)N(C)CC(=O)N(C)CC(=O)N(C)CC(=O)N(C)CC(=O)N[C@@H](C)C(=O)N[C@H]4CSCc5cc6cc(c5)CSC[C@H](NC(=O)[C@@H](C)NC(=O)[C@H](Cc5cccc7ccccc57)NC(=O)[C@H](CCC(=O)O)NC(=O)[C@H](CC(N)=O)NC(=O)[C@@H](C)NC4=O)C(=O)N[C@@H](CCC(=O)O)C(=O)N[C@@H](CC(=O)O)C(=O)N[C@@H](Cc4ccccc4)C(=O)N[C@@H](Cc4ccc(O)cc4)C(=O)N[C@@H](CC(=O)O)C(=O)N[C@@H](C(C)(C)C)C(=O)N[C@H](C(N)=O)CSC6)nn3)CCC2)cc1 [I-30] (X4-[X5][βAla][Sar][Sar][Sar][Sar][Sar][Sar][Sar][Sar][Sar][Sar]AC[dA]NE[1Nal][dA]CEDFYD[Tle]C-NH2; linker 14-20-27 via TBMB) | > 24 h | > 24 h | > 24 h | > 24 h | 6 to 24 h |
| CCOCc1nc2c(NC(=O)OCCN(C)C(=O)OCc3ccc(NC(=O)[C@H](CCCNC(N)=O)NC(=O)[C@@H](NC(=O)Cn4cc(CCC(=O)NCCC(=O)N(C)CC(=O)N(C)CC(=O)N(C)CC(=O)N(C)CC(=O)N(C)CC(=O)N(C)CC(=O)N(C)CC(=O)N(C)CC(=O)N(C)CC(=O)N(C)CC(=O)N[C@@H](C)C(=O)N[C@H]5CSCc6cc7cc(c6)CSC[C@H](NC(=O)[C@@H](C)NC(=O)[C@H](Cc6cccc8ccccc68)NC(=O)[C@H](CCC(=O)O)NC(=O)[C@H](CC(N)=O)NC(=O)[C@@H](C)NC5=O)C(=O)N[C@@H](CCC(=O)O)C(=O)N[C@@H](CC(=O)O)C(=O)N[C@@H](Cc5ccccc5)C(=O)N[C@@H](Cc5ccc(O)cc5)C(=O)N[C@@H](CC(=O)O)C(=O)N[C@@H](C(C)(C)C)C(=O)N[C@H](C(N)=O)CSC7)nn4)C(C)C)cc3)nc3ccccc3c2n1CC(C)(C)O [I-32] ({X12-βAla}-[Sar][Sar][Sar][Sar][Sar][Sar][Sar][Sar][Sar][Sar]AC[dA]NE[1Nal][dA]CEDFYD[Tle]C-NH2; linker 12-18-25 via TBMB) | > 24 h | > 24 h | < 2 h | < 2 h | < 2 h |
| CCN(Cc1nc2c(N)nc3ccccc3c2n1CC(C)(C)O)C(=O)OCc1ccc(NC(=O)[C@H](CCCNC(N)=O)NC(=O)[C@@H](NC(=O)Cn2cc(CCC(=O)NCCC(=O)N(C)CC(=O)N(C)CC(=O)N(C)CC(=O)N(C)CC(=O)N(C)CC(=O)N(C)CC(=O)N(C)CC(=O)N(C)CC(=O)N(C)CC(=O)N(C)CC(=O)N[C@@H](C)C(=O)N[C@H]3CSCc4cc5cc(c4)CSC[C@H](NC(=O)[C@@H](C)NC(=O)[C@H](Cc4cccc6ccccc46)NC(=O)[C@H](CCC(=O)O)NC(=O)[C@H](CC(N)=O)NC(=O)[C@@H](C)NC3=O)C(=O)N[C@@H](CCC(=O)O)C(=O)N[C@@H](CC(=O)O)C(=O)N[C@@H](Cc3ccccc3)C(=O)N[C@@H](Cc3ccc(O)cc3)C(=O)N[C@@H](CC(=O)O)C(=O)N[C@@H](C(C)(C)C)C(=O)N[C@H](C(N)=O)CSC5)nn2)C(C)C)cc1 [I-33] ({X6-βAla}-[Sar][Sar][Sar][Sar][Sar][Sar][Sar][Sar][Sar][Sar]AC[dA]NE[1Nal][dA]CEDFYD[Tle]C-NH2; linker 12-18-25 via TBMB) | > 24 h | > 24 h | > 24 h | 6 to 24 h | 6 to 24 h |
